From patent US11053304 (CENTIVAX, dated 2021)
Like-named read-outs stand apart in the source and are kept apart here.

B1: COVID19_P08_F04 (scFv, V domains shown)
VH: EVQLVESGGGLVQPGGSLRLSCAASGFRFDDFGMHWYRQAPGKGLEWVSATSGGGSITYYADSVKGRFTISRDNSKNTLYLQMNSLRAEDTAVYYCVTNMDNSRDYFPHYFHDMDVWGQGTLVTVSS
VL: not shown
B2: COVID19_P08_G07 (scFv, V domains shown)
VH: EVQLVESGGGLVQPGGSLRLSCAASGFTFSTYGMHWVRQAPGKGLEWVSTISGNGVSTSYADSVKGRFTISRDNSKNTLYLQMNSLRAEDTAVYYCVTNMDNSRDYFPHYFHDMDVWGQGTLVTVSS
VL: DIVMTQSPLSLPVTPGEPASISCRSSQSLVYSDGYTYLNWYLQKPGQSPQLLIYQVSNRASGVPDRFSGSGSGTDFTLKISRVEAEDVGVYYCMQALQTPALTFGGGTKVEIKR
B3: COVID19_P08_C08 (scFv, V domains shown)
VH: EVQLVESGGGLVQPGGSLRLSCAASGFTFRNYAMHWVRQAPGKGLEWVSAVSSSGGSPYYADSVKGRFTISRDNSKNTLYLQMNSLRAEDTAVYYCVTNMDNSRDYFPHYFHDMDVWGQGTLVTVSS
VL: DIVMTQSPLSLPVTPGEPASISCRSSQSLVHSDGDNYLNWYLQKPGQSPQLLIYSGSYRASGVPDRFSGSGSGTDFTLKISRVEAEDVGVYYCMQGTHWPLTFGGGTKVEIKR
B4: COVID19_P07_F02 (scFv, V domains shown)
VH: EVQLVESGGGLVQPGGSLRLSCAASGFAFSNYGMHWIRQAPGKGLEWVSGIDGSGGTAHYADSVKGRFTISRDNSKNTLYLQMNSLRAEDTAVYYCVTNMDNSRDYFPHYFHDMDVWGQGTLVTVSS
VL: not shown
B5: COVID19_P07_A09 (scFv, V domains shown)
VH: EVQLVESGGGLVQPGGSLRLSCAASGFTFSSYGVHWVRQAPGKGLEWVAVISHDGKKKYYADSVKGRFTISRDNSKNTLYLQMNSLRAEDTAVYYCVTNVDNSRDYFPHYFHDMDVWGQGTLVTVSS
VL: not shown
B6: COVID19_P19_C07 (scFv, V domains shown)
VH: EVQLVESGGGLVQPGGSLRLSCAASGFPFSLYGMHWVRQAPGKGLEWVAVITSDGRSKFYADSVKGRFTISRDNSKNTLYLQMNSLRAEDTAVYYCVTNLDNSRDYFPHYFHDMDVWGQGTLVTVSS
VL: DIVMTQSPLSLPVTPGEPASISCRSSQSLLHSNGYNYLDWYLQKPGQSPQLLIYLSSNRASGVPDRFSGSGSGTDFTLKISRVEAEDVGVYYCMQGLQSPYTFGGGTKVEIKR
B7: COVID19_P07_H01 (scFv, V domains shown)
VH: EVQLVESGGGLVQPGGSLRLSCAASGFTFRSYAMHWVRQAPGKGLEWVAVISSDGRNKFYADSVKGRFTISRDNSKNTLYLQMNSLRAEDTAVYYCVTNMDNSRDYFPHYFHDMDVWGQGTLVTVSS
VL: DIVMTQSPLSLPVTPGEPASISCRSSQSLLHSNGNNYMDWYLQKPGQSPQLLIYLASQRASGVPDRFSGSGSGTDFTLKISRVEAEDVGVYYCMQALQRPLTFGGGTKVEIKR
B8: COVID19_P07_D09 (scFv, V domains shown)
VH: EVQLVESGGGLVQPGGSLRLSCAASGFSFSRYGMHWVRQAPGKGLEWVSGISADGGTAYYADSVKGRFTISRDNSKNTLYLQMNSLRAEDTAVYYCVTNMDNSRDYFPHYFHDMDVWGQGTLVTVSS
VL: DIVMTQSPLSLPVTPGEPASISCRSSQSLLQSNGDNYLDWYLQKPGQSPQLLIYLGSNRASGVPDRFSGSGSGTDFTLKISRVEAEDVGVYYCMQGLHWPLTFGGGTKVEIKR
B9: COVID19_P20_B06 (scFv, V domains shown)
VH: EVQLVESGGGLVQPGGSLRLSCAASGFTFHDYAMHWVRQAPGKGLEWVAVTSYDGNTKYYADSVKGRFTISRDNSKNTLYLQMNSLRAEDTAVYYCVTNLDNSRDYFPHYFHDMDVWGQGTLVTVSS
VL: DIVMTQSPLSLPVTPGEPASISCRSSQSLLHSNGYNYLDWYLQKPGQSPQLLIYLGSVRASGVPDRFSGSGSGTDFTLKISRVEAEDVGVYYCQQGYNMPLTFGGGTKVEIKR
B10: COVID19_P08_B12 (scFv, V domains shown)
VH: EVQLVESGGGLVQPGGSLRLSCAASGFSFRSYGMHWVRQAPGKGLEWVAVISSDGRNKFYADSVKGRFTISRDNSKNTLYLQMNSLRAEDTAVYYCVTNFDNSRDYFPHYFHDMDVWGQGTLVTVSS
VL: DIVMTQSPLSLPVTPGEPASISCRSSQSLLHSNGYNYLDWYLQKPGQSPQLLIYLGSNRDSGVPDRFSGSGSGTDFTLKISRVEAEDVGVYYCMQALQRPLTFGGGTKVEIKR
B11: COVID19_P08_D09 (scFv, V domains shown)
VH: EVQLVESGGGLVQPGGSLRLSCAASGFTFSTYAMHWVRQAPGKGLEWVAVISYDGNYQYYADSVKGRFTISRDNSKNTLYLQMNSLRAEDTAVYYCVTNLDNSRDYFPHYFHDMDVWGQGTLVTVSS
VL: not shown
B12: COVID19_P07_G02 (scFv, V domains shown)
VH: EVQLVESGGGLVQPGGSLRLSCAASGFRFNTYAMHWVRQAPGKGLEWVAVISSSGRNKFYADSVKGRFTISRDNSKNTLYLQMNSLRAEDTAVYYCVTNMDNSRDYFPHYFHDMDVWGQGTLVTVSS
VL: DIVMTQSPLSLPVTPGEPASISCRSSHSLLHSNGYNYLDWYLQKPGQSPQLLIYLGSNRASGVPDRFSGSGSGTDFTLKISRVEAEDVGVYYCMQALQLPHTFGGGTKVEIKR
B13: COVID19_P08_C12 (scFv, V domains shown)
VH: EVQLVESGGGLVQPGGSLRLSCAASGFTFNNYALHWVRQAPGKGLEWVSGVSWNGSRTHYADSVKGRFTISRDNSKNTLYLQMNSLRAEDTAVYYCVTNLDNSRDYFPHYFHDMDVWGQGTLVTVSS
VL: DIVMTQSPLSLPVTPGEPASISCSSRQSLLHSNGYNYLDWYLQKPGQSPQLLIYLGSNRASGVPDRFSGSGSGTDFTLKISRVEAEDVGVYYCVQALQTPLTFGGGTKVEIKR
B14: COVID19_P20_C11 (scFv, V domains shown)
VH: EVQLVESGGGLVQPGGSLRLSCAASGFTFSSYSMNWVRQAPGKGLEWVSGISGSGDRTYYADSVKGRFTISRDNSKNTLYLQMNSLRAEDTAVYYCSMQRDNSRDYFPHYFHDMDVWGQGTLVTVSS
VL: DIVMTQSPLSLPVTPGEPASISCRSSQSLLYSDGDTYLDWYLQKPGQSPQLLIYLGSIRAPGVPDRFSGSGSGTDFTLKISRVEAEDVGVYYCMQSVQTPWTFGGGTKVEIKR
B15: COVID19_P19_B08 (scFv, V domains shown)
VH: EVQLVESGGGLVQPGGSLRLSCAASGFTFSDHYMDWVRQAPGKGLEWVAAIGASGESTYYADSVKGRFTISRDNSKNTLYLQMNSLRAEDTAVYYCVTQRDNSRDYFPLWFHDMDVWGQGTLVTVSS
VL: DIVMTQSPLSLPVTPGEPASISCRSSQSLLYSDGDTYLDWYLQKPGQSPQLLIYLGSIRAPGVPDRFSGSGSGTDFTLKISRVEAEDVGVYYCMQSIQTPWTFGGGTKVEIKR
B16: COVID19_P19_H07 (scFv, V domains shown)
VH: EVQLVESGGGLVQPGGSLRLSCAASGFTFGTSAVSWVRQAPGKGLEWVSAISGSGGSTYYADSVKGRFTISRDNSKNTLYLQMNSLRAEDTAVYYCVTQRDNSRDYFPHYFHDMDVWGQGTLVTVSS
VL: DIVMTQSPLSLPVTPGEPASISCRSSQSLLYSDGDTYLDWYLQKPGQSPQLLIYLGSIRAPGVPDRFSGSGSGTDFTLKISRVEAEDVGVYYCMQGLETPWTFGGGTKVEIKR
B17: COVID19_P19_B04 (scFv, V domains shown)
VH: EVQLVESGGGLVQPGGSLRLSCAASGITFNNYAMTWVRQAPGKGLEWVSGISGSGGSTYYADSVKGRFTISRDNSRNTLYLQMNSLRAEDTAVYYCVTQRDNPVDYFPHYFHDMDVWGQGTLVTVSS
VL: DIVMTQSPLSLPVTPGEPASISCRSSQSLLYSDGDTYLDWYLQKPGQSPQLLIYLGSIRAPGVPDRFSGSGSGTDFTLKISRVEAEDVGVYYCMQALQVPWTFGGGTKVEIKR

Columns and labels:
Assay in all cases: SPR, scFv captured via anti-V5, RBD as analyte
[1] = target: T1, SARS-CoV-2 Receptor Binding Domain (RBD) protein (SARS-CoV-2, UniProt P0DTC2 319-541)
[2] = target: MERS Receptor Binding Domain (RBD) protein (MERS coronavirus, UniProt K9N5Q8 367-606)
[3] = target: SARS-CoV-1 Receptor Binding Domain (RBD) protein (SARS-CoV-1, UniProt P59594 306-527)
[4] = target: T1, SARS-CoV-2 Receptor Binding Domain …; remark: listed apart in the source

Row | Binder | Kd [1] [nM] | koff [1] [s⁻¹] | kon [1] [M⁻¹ s⁻¹] | binding result [2] | binding result [3] | Kd [4] [nM]
1 | B1 | 2.04 | 0.00019 | 93000 | no binding (tested: up to 300 nM) | no binding (tested: up to 300 nM) | < 50
2 | B2 | 10.6 | 0.00072 | 68000 | no binding (tested: up to 300 nM) | no binding (tested: up to 300 nM) | < 50
3 | B3 | 1.8 | 5.7e-05 | 32000 | no binding (tested: up to 300 nM) | no binding (tested: up to 300 nM) | < 50
4 | B4 | 10.1 | 0.00018 | 17800 | no binding (tested: up to 300 nM) | no binding (tested: up to 300 nM) | < 50
5 | B5 | 1.5 | 5.7e-05 | 39100 | no binding (tested: up to 300 nM) | no binding (tested: up to 300 nM) | < 50
6 | B6 | 3.6 | 5.7e-05 | 16000 | no binding (tested: up to 300 nM) | no binding (tested: up to 300 nM) | < 50
7 | B7 | 2.9 | 5.7e-05 | 19900 | no binding (tested: up to 300 nM) | no binding (tested: up to 300 nM) | < 50
8 | B8 | 1.8 | 5.7e-05 | 32500 | no binding (tested: up to 300 nM) | no binding (tested: up to 300 nM) | < 50
9 | B9 | 5.1 | 0.000439 | 86000 | no binding (tested: up to 300 nM) | no binding (tested: up to 300 nM) | < 50
10 | B10 | 3.5 | 5.7e-05 | 16000 | no binding (tested: up to 300 nM) | no binding (tested: up to 300 nM) | < 50
11 | B11 | 1.5 | 5.7e-05 | 38000 | no binding (tested: up to 300 nM) | no binding (tested: up to 300 nM) | < 50
12 | B12 | 4.8 | 5.7e-05 | 11900 | no binding (tested: up to 300 nM) | no binding (tested: up to 300 nM) | < 50
13 | B13 | 1.1 | 5.7e-05 | 53000 | no binding (tested: up to 300 nM) | no binding (tested: up to 300 nM) | < 50
14 | B14 | 2.94 | 0.000607 | 207000 | no binding (tested: up to 300 nM) | no binding (tested: up to 300 nM) | < 50
15 | B15 | 32.7 | 0.00685 | 209000 | no binding (tested: up to 300 nM) | no binding (tested: up to 300 nM) | < 50
16 | B16 | 37 | 0.00786 | 212000 | no binding (tested: up to 300 nM) | no binding (tested: up to 300 nM) | < 50
17 | B17 | 22 | 0.00795 | 361000 | no binding (tested: up to 300 nM) | no binding (tested: up to 300 nM) | < 50
